Results from patent publication US20230044037A1 (INTERVET, published 2023).

Target: T1, canine IL-4 receptor alpha (IL-4Rα) on DH82 cells (canine)
T1 construct: Endogenous receptor of the DH82 cells in the STAT-6 assay; also called canine IL-4Rα; IL-4R alpha
T1 chain: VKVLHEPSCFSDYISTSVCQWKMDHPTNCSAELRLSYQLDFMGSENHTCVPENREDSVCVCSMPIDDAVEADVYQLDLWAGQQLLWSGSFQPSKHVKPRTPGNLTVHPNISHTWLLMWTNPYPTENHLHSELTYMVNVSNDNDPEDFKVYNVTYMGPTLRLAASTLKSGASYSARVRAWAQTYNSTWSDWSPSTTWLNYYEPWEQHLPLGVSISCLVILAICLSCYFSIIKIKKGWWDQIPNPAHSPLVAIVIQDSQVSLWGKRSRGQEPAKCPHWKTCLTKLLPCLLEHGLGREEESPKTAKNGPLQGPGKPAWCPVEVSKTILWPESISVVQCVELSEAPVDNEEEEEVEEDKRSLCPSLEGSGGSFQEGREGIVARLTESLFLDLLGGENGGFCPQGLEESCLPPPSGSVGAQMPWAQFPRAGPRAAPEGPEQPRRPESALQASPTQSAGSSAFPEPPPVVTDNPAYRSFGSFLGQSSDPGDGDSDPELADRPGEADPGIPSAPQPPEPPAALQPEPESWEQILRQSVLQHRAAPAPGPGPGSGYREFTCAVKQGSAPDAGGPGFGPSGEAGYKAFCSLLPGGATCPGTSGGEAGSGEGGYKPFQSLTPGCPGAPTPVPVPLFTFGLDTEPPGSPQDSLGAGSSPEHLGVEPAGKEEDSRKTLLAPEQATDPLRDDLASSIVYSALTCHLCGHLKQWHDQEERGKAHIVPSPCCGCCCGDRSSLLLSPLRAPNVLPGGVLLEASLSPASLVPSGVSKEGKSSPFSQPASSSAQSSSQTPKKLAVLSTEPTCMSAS
Assay: told from inhibition of IL-4- and IL-13-mediated STAT-6 phosphorylation in DH82 cells (AlphaLISA)

- binding result: binds
B1: c152H11-H3L3 (c152H11VL3-cCLk-s/c152H11VH3-cIgG-Bm) (antibody, V domains shown)
VH: EVQLVESGGDLVKPGGSLRLSCAASGFTFSSYGMSWVRQAPDKRLQWVATISRGGDYTYYPDSVKGRFTISRDNAKNTLYLQMNSLRAEDTAMYYCARGTLNNRGFASWGQGTLVTVSS
VL: EIVMTQSPASLSLSQEEKVTITCKASQNVGTNVAWYQQKPGQAPKLLIYSASYRYSGLPDRFSGSGSGTDFSFTISSLEPEDVAEFFCQQYNSYPYTFGQGTKLEIKR
notes: Caninized anti-canine IL-4R alpha antibody: VH3 heavy chain on modified canine IgG-B (IgG-Bm), kappa light chain L3
